Source: patent US20190194718, “GENERATION OF TAGGED DNA FRAGMENTS” (QIAGEN GMBH, published 2019)

Target: BPHIN 1 (wild-type HIV-1 integrase) (Human immunodeficiency virus 1, UniProt P04585 P04585:1148-1435)
Assay: pGL2 fragments 150-500 bp; 5 mM MnCl2, 37 C
Conditions: tags: BioProducts MD, LLC; chain copies: 4; partially double-stranded

B1: IN adaptor 7 (dsDNA)
DNA 1: AATGATACGGCGACCACCGAGATCTACACTCTTTCCCTACACGACGCTCTTCCGATCTAGCAGT
DNA 2: ACTGCT
B1: binds.
